In paper PMC11928058:

Columns and labels:
[1] = biological target: Rap1 (mouse (endogenous in immortalized murine lung endothelial cells)) (UniProt P62835); test: proximity ligation; Duolink PLA read by flow cytometry; immortalized murine lung endothelial cells in suspension, in the dark or with blue light for the indicated times, rabbit anti-SHANK3 and mouse anti-Rap1; signal as fold over a sample without primary antibodies; cells with SHANK3 shRNA as control
[2] = biological target: Rap1 (mouse (endogenous in immortalized murine lung endothelial cells)) (UniProt P62835); test: proximity ligation; Duolink PLA read by flow cytometry; immortalized mouse endothelial cells expressing CIBN–GFP–CAAX and CRY2–mCherry–talin, in the dark or with blue light for 30 min at room temperature, fixed, permeabilized, stained with rabbit anti-mCherry and mouse anti-Rap1; with or without overexpressed mAzurite–FLAG–WT SPN

Chain of UniProt P62835 (P62835 whole entry): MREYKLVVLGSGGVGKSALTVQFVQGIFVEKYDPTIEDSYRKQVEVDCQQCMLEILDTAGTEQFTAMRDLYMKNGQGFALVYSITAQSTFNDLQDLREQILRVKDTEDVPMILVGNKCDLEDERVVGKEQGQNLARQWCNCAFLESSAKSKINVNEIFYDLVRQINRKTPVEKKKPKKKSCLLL

## SH3 and multiple ankyrin repeat domains 3 (SHANK3) (from UniProt Q4ACU6 1-1730) (natural protein)
[1]
  PLA signal, fold over the same cells expressing SHANK3 shRNA: 3 fold

## mAzurite–FLAG–WT SPN (wild-type SPN domain of SHANK3) (domain or fragment)
[2]
  percent reduction of the PLA signal of m1 with m2: 70%

## CRY2–mCherry–talin (full-length mouse talin-1) (from UniProt P26039 1-2541) (natural protein)
[2]
  increase of the PLA signal with blue light over dark: 10%
[1]
  percent reduction of the PLA signal of m4 with m2 after 30 min of blue light: 40%
